According to patent US20240245805A1 (Orna Therapeutics, Inc., priority 2020, published 2024):

Each molecule was assayed on HEK293 cells. Settings: circular RNA encoding Gluc with the listed IRES (UTR truncated to 675 nt) transfected into HEK293 cells; supernatant after 24 hours.
Assay type: cell-based, human

| Molecule | Expression (luminescence from secreted Gluc protein) |
| --- | --- |
| HAV FH1 (nucleic acid, lipid formulation; Hepatovirus A) CTTGATACCTCACCGCCGTTTGCCTAGGCTATAGGCTAAATTTCCCTTTCCCTGTCCTTTCCCTATTTCCTTTTGTTTTGTTTGTAAATATTAATTCCTGCAGGTTCAGGGTTCTTTAATCTGTTTCTCTATAAGAACACTCAATTTTCACGCTTTCTGTCTCCTTTCTTCCAGGGCTCTCCCCTTGCCCTAGGCTCTGGCCGTTGCGCCCGGCGGGGTCAACTCCATGATTAGCATGGAGCTGTAGGAGTCTAAATTGGGGACGCAGATGTTTGGGACGTCGCCTTGCAGTGTTAACTTGGCTTTCATGAACCTCTTTGATCTTCCACAAGGGGTAGGCTACGGGTGAAACCTCTTAGGCTAATACTTCTATGAAGAGATGCCTTGGATAGGGTAACAGCGGCGGATATTGGTGAGTTGTTAAGACAAAAACCATTCAACGCCGAAGGACTGGCTCTCATCCAGTGGATGCATTGAGGGAATTGATTGTCAGGGCTGTCTCTAGGTTTAATCTCAGACCTCTCTGTGCTTAGGGCAAACACTATTTGGCCTTAAATGGGATCCTGTGAGAGGGGGTCCCTCCATTGACAGCTGGACTGTTCTTTGGGGCCTTATGTGGTGTTTGCCTCTGAGGTACTCAGGGGCATTTAGGTTTTTCCTCATTCTTAAACAATA | 1.24E+05 |
| Parechovirus C (nucleic acid, lipid formulation; Parechovirus C) DNA: CGGTCATCCCCCTTTCCCCACAGCCGGTGTGGGTTCTAATCGGCTCCTACTAAACACCTAAGCATCACTGCGCCTCTATCTCTCCTATCCACAGGTCTAAGACGCTTGGAATAAGACATGTGGGTGCAATAGGAAGATTAGCTAGTCCAATCTCTCCTTCCAGCTACGCTTCTCCCTTCGATGAGCGTAGGGGGGGCCCCCACCTCCCTCATCTCTGGATAGGGCTCTTGCTACGGGGCTTTCCCGTCTGGACCAGCAGGCCCACTGGTGCGCTTCCATTCAAGTTTAGTGTGCATTACTGTCTGAAATATTGCTTTGCTAGGATCTAGTGTAGCGACCTGCATATTGCCAGCGGACTTCCCCACATGGTAACATGTGCCTCTGGGCCCAAAAGGCATGTCTTTGACCGTATGCAGTACAACCCCAGTATAGGTCCTTTCTATGGCAGTATGGATCTCAGTGATGAGTCTATACAGAATATGGAAGTGGTTCGGATATGTCAGCCCGAAGGATGCCCAGAAGGTACCCGCAGATAACCTTAAGAGACTGTGGATCTGATCTGGGGCCCACCACCTTCGGGTGGGTAGAAGCTAACCATGCCTTGGGTTAAAAAACGTCTAAGGGCTGACCAGACCCGGGGGATCCGGGTTTTCCCTATCTTGACCTACTCTAATC | 1.24E+06 |
| Simian Sapelovirus 1 (nucleic acid, listed as Sapelovirus sp.) DNA: CCAAGGATCTGTTGCATAGGCGTTGTATCCCCTAACCTTTTACCTACCCATCCCAATAGGACTGGTATTTCGGTTTTGATTGAGTAATGGATACTGATTCTATACCTGTTACCCATTCAGGGGAAAAATGGAGTTTCTTTCATGGATCTGACTTGATATGACCAAGAGTCAACACTTTGCGTGTTGGCCGTATGGAATGCTTTAAGGTTTATTCTTTGGATTATGACTTCAGGGTTGGCCGCCCAGGATAAAAGGCAATTGTGGTAAGTGATGTTAGTCATTGGTGGTTGAAACCTGCCTAAGACGTCCTAGGTCTACGCTGTGCGGGCCGAAGTAAGCTTAGGAATAACAGGGAGTATGCCATTTTCTGCTTTCACCCAACACGACCGTACACGAAAGAGCTAGAGGCACTTTGGGGCAAAGGGAAAAGCTTTGCTTAGCCCGAATGTTCATTTGAGTCCTTGACGAATGCGTCCCGTCTGTCCCGACGGTGAGGCGTATGGCGCATGCTCATGGCATTACCCAATGGTGTATCTGTGAGGGGGGGGCTCCTCACACTTAGTCTAGTGCTACCTGACAGGGCCGCGGCTGGTCGTTTGTGTATGGTATAACCAGTAGTAATCCCCCATGGATTGCTTTAACTTCCCCTCCTCCCTTACCAAGACATTCTCTAAG | 6.55E+07 |
| Orivirus (nucleic acid, listed as Orivirus sp., lipid formulation) DNA: GGTCCCAGGCCAATATTCTTCGTAAGGCTTGGTTCCAATTTTCCACCACTCGTGTTTGGGTTCTGGCCTATGGTACCCAGAGGGGCGGTTTGGGGGAATTAACTCCCCCTCCCCTGTGGTCCTATACCACCCCACACCTCTGTGGGCTTTCTTTACTATCTTCTTGTTTTCCGACTTTTAAACACTAGGCAGGCGCGCCTAGTCATACACCGCCCGGCTGGTCTTTCCAGCTCTTGTGGGCGGTGCGCGCTGGTCCATCGTGCCCAGCGACATAGCACCTTGTGGACACCTCCGAACGCCCTCCCCTGTATGGGGTGGTGCCCAGGGGTTTCAGTGTGGTGACACACTCCCTGGGGCCCGAAAGGCTAGTGTGCAACAGGTGAGGTACAGCCAGCTGCCCCCGTGGCTGGAGGGACCAAGCTTGTGAAGCACACCTCACCTTCTTGGGGGTGGGCTAGTAAGTGGTGAAAGCATAGTGTCCGTGTCGCTGGCCAACACTTTGGGTCAAGTCCAGCCACTCAGTGAGTAGATGCCCAGGAGGTACCCCTAGTGGATCTGACTTGGGGCCTGTTACTTAATGCAGGTTAAAAACTATGAAAGCTGAGTAGTGTAGCCCGGCTGGTGGCTTCTCTTCCTTATTCATTCTATTTTATGGTGACAAACGCAACTGAAGCC | 6.09E+05 |
| HAV HM175 (nucleic acid, lipid formulation; Hepatovirus A) CGCCGTTTGCCTAGGCTATAGGCTAAATTTTCCCTTTCCCTTTTCCCTTTCCTATTCCCTTTGTTTTGCTTGTAAATATTGATTTGTAAATATTGATTCCTGCAGGTTCAGGGTTCTTAAATCTGTTTCTCTATAAGAACACTCATTTCACGCTTTCTGTCTTCTTTCTTCCAGGGCTCTCCCCTTGCCCTAGGCTCTGGCCGTTGCGCCCGGCGGGGTCAACTCCATGATTAGCATGGAGCTGTAGGAGTCTAAATTGGGGACACAGATGTTTGGAACGTCACCTTGCAGTGTTAACTTGGCTTTCATGAATCTCTTTGATCTTCCACAAGGGGTAGGCTACGGGTGAAACCTCTTAGGCTAATACTTCTATGAAGAGATGCCTTGGATAGGGTAACAGCGGCGGATATTGGTGAGTTGTTAAGACAAAAACCATTCAACGCCGGAGGACTGACTCTCATCCAGTGGATGCATTGAGTGGATTGACTGTCGGGGCTGTCTTTAGGCTTAATTCCAGACCTCTCTGTGCTTGGGGCAAACATCATTTGGCCTTAAATGGGATTCTGTGAGAGGGGATCCCTCCATTGCCAGCTGGACTGTTCTTTGGGGCCTTATGTGGTGTTTGCCGCTGAGGTACTCAGGGGCATTTAGGTTTTTCCTCATTCTTAAATAATA | 4.96E+05 |
| Parechovirus D (nucleic acid, lipid formulation; Parechovirus D) DNA: ACATGGGGCAGGTGTGCTGTGCCAAGAGCAACACTACGGTGGCCGAGCCGATGGTTCGTCACCACGTAGTAGGACTCCGTAGTGCTTGGTTACGGCGGACGTAAGTCAGTTGAGTGATGTCTAAGTGGCAAACCATGAGTACATGGTAACCTTGTGTGGACTCGCGGGACGGAATTTCCTATCCCATTGACTCCTTGTAGCAAGGTGGGTATACCCAACCACAATGGCAGCACCCTGGGTGGGAACCCAGGGGCCTGGATTAGTATCCAGTCACACAGCCTGATAGGGTGGCGGCTCAGCCACTGACCAGCGTCTCTAAATAATTGTGAGCTGTTCATGCACC | 3.10E+05 |
